In patent publication US20230365659A1 (EPSILON MOLECULAR ENGINEERING, published 2023):

How the values were obtained:
[1] = molecular target: T1, SARS-CoV-2 full-length Spike Recombinant Antigen B.1.617 Mutation (Bio-Serv) (SARS-CoV-2, UniProt P0DTC2 14-1273); assay: ELISA, VHH on nickel plate, spike in solution
T1 construct: Bought

[2] = molecular target: SARS-CoV-2 full-length Spike Recombinant Antigen B.1.1.7 Mutation (Bio-Serv) (SARS-CoV-2, UniProt P0DTC2 14-1273); assay: ELISA, VHH on nickel plate, spike in solution (0-500 ng/mL)
[3] = molecular target: SARS-CoV-2 (2019-nCoV) spike S1-Fc recombinant protein (Sino Biological, Inc.) (SARS-CoV-2, UniProt P0DTC2 16-685)
[4] = molecular target: SARS-CoV-2 full-length Spike Recombinant Antigen B.1.351 Mutation (Bio-Serv) (SARS-CoV-2, UniProt P0DTC2 14-1273); assay: ELISA, VHH on nickel plate, spike in solution (0-500 ng/mL)
[5] = molecular target: SARS-CoV-2 full-length Spike Recombinant Antigen P.1 Mutation (Bio-Serv) (SARS-CoV-2, UniProt P0DTC2 14-1273); assay: as above
[6] = molecular target: T2, SARS-CoV-2 spike RBD variant strain (SPD-C52Hn, Acro Biosystems, N501Y) (SARS-CoV-2, UniProt P0DTC2 319-537); assay: BLI (Octet), biotinylated RBD on SA sensor, VHH as analyte, 1:1 fit
T2 construct: domain: RBD

[7] = molecular target: T3, SARS-CoV2 spike RBD variant strain (SRD-C52H3, Acro Biosystems, E484K) (SARS-CoV-2, UniProt P0DTC2 319-537); assay: as above
T3 construct: domain: RBD

[8] = molecular target: T4, SARS-CoV2 spike RBD variant (SRD-C52H2, Acro Biosystems, N440K) (SARS-CoV-2, UniProt P0DTC2 319-537); assay: as above
T4 construct: domain: RBD

[9] = molecular target: T5, SARS-CoV2 spike RBD variant strain (SPD-C52Hp, Acro Biosystems, K417N, E484K, N501Y) (SARS-CoV-2, UniProt P0DTC2 319-537); assay: as above
T5 construct: domain: RBD

[10] = molecular target: T6, SARS-CoV-2 (2019-nCoV) spike RBD (L452Q, F490S) protein (His Tag) (Sino Biological, Inc.) (SARS-CoV-2, UniProt P0DTC2 319-541); assay: pull-down with VHH-immobilized beads, SDS-PAGE of the eluate
T6 construct: domain: RBD

B1: Bacillus subtilis-derived VHH-COVE4 (VHH)
VHH: AEVQLVESGGDVVQPGGSLRLSCAASGFTFTTYAMTWVRQAPGEGLEAVSTISGADGSTYYADSVKGRFTISRDNANNTVYLQMNSLKPEDTAVYYCAATPWYSASHTYWGQGTQVTVSSGGGSHHHHHH
B1: no binding (tested: 500 ng/mL) [1]; binds [2].

B2: Bacillus subtilis-derived VHH-COVE2 (VHH)
VHH: AEVQLVESGGGLVQAGDSLRLSCAATRRTSSTYAMGWFRQAPGKGLEWVAAISWDGGRTYYAESVKGRFTISRDNAKNTVYLQMNSLKPEDTAVYYCYSFGGSDFLMDYWGQGTQVTVSSGGGSHHHHHH
B2 gave a Kd [3] of 1.2 nM, a koff [3] of 8.47e-05 s⁻¹ and a kon [3] of 70700 M⁻¹ s⁻¹. The binding result [1] was “no binding (tested: 500 ng/mL)”, the “absorbance (450 nm)” value [2] was 0.97 and the “absorbance (450 nm)” value [4] was 0.97. For the same binder, the “absorbance (450 nm)” value [5] was 0.97, the Kd [6] was 4.01 nM and the koff [6] was 0.000438 s⁻¹. It also gave a kon [6] of 109000 M⁻¹ s⁻¹, a Kd [7] of 34.4 nM and a koff [7] of 0.00365 s⁻¹. For the same binder, the kon [7] was 106000 M⁻¹ s⁻¹, the Kd [8] was 2.96 nM and the koff [8] was 0.000491 s⁻¹. For the same binder, the kon [8] was 166000 M⁻¹ s⁻¹, the Kd [9] was 90.7 nM and the koff [9] was 0.00529 s⁻¹. For the same binder, the kon [9] was 58400 M⁻¹ s⁻¹.

B3: Bacillus subtilis-derived VHH-COVE6 (VHH)
VHH: EVQLVESGGGLVQAGGSLRLSCTASGRTWNIASMTWFRQAPGGKERTFVATIKWSDLATYYTDSVKGRFTISRGNSKNTVYLQMNSLKPEDTGVYFCYAITTGSPLLGGGMDFWGKGTLVTVSS
B3: no binding (tested: 500 ng/mL) [1]; binds [2].

B4: Bacillus subtilis-derived VHH-COVE9 (VHH)
VHH: EVQLVESGGGLVQPGGSLRLSCAASGTIFSTNAMSWYRQAPGKQRELVAAITSGGNTNYADSVKGRFTISRDNAKNTVYLQMNSLKPEDTAVYYCNAPGVVTGSYDVRNYWGQGTQVTVSS
For B4, the binding result [1] was “no binding (tested: 500 ng/mL)”, the “absorbance (450 nm)” value [2] was 0.97 and the “absorbance (450 nm)” value [4] was 0.97. For the same binder, the “absorbance (450 nm)” value [5] was 0.97, the Kd [6] was 6.9 nM and the koff [6] was 0.00267 s⁻¹. It also gave a kon [6] of 386000 M⁻¹ s⁻¹, a Kd [7] of 9.9 nM and a koff [7] of 0.00307 s⁻¹. For the same binder, the kon [7] was 310000 M⁻¹ s⁻¹, the Kd [8] was 12.5 nM and the koff [8] was 0.00258 s⁻¹. The kon [8] was 206000 M⁻¹ s⁻¹, the Kd [9] was 10.9 nM and the koff [9] was 0.00159 s⁻¹. For the same binder, the kon [9] was 146000 M⁻¹ s⁻¹.

B5: VHH-COVE9 (on beads in Example 26, production host not stated) (VHH)
VHH: EVQLVESGGGLVQPGGSLRLSCAASGTIFSTNAMSWYRQAPGKQRELVAAITSGGNTNYADSVKGRFTISRDNAKNTVYLQMNSLKPEDTAVYYCNAPGVVTGSYDVRNYWGQGTQVTVSS
B5: no binding (tested: 12.5 µg/mL) [10].

B6: Bacillus subtilis-derived VHH-COVE3 (VHH)
VHH: AEVQLVESGGGFVQAGGSLRLSCRVSAPTFMTYTMAWFRQAPGNEREFVAALSKNFVTTSYADSVKGRFTISRDNAKNTVYLQMNSLKPEDTAVYYCNVAWSDYEYLEVWGQGTLVTVSSGGGSHHHHHH
B6 gave a Kd [3] of 0.924 nM, a koff [3] of 9.75e-05 s⁻¹ and a kon [3] of 106000 M⁻¹ s⁻¹. For the same binder, the “absorbance (450 nm)” value [2] was 0.97, the “absorbance (450 nm)” value [4] was 0.97 and the “absorbance (450 nm)” value [5] was 0.97. The Kd [8] was 15.4 nM, the koff [8] was 0.000448 s⁻¹ and the kon [8] was 29200 M⁻¹ s⁻¹. The Kd [9] was 265 nM, the koff [9] was 0.0106 s⁻¹ and the kon [9] was 40000 M⁻¹ s⁻¹.

B7: Bacillus subtilis-derived VHH-COVE1 (VHH)
VHH: AEVQLVESGGGLVQPGGSLRLSCAASGFAFSSYPMYWVRQAPGKGLEWISFIDGEGTSTSYADSVKGRFTISRDNAKNTVYLQMNSLKPEDTAVYYCNALLRRYNYGFTFDNYWGQGTQVTVSSGGGSHHHHHH
B7: no binding (tested: 500 ng/mL) [1]; binds [2].

B8: Bacillus subtilis-derived VHH-COVE8 (VHH)
VHH: EVQLVESGGGLVQPGGSLTLSCAASGQTFSSYNMAWFRQSPGKEREFVATISWGGGSTGYADSVKGRFTISRDHAKNTVYLQMKDLKPEDTGAYYCYLVGLFGIQASDYWGQGTQVTVSS
In the case of B8, the binding result [1] is reported as “no binding (tested: 500 ng/mL)”, the “absorbance (450 nm)” value [2] is reported as 0.97 and the “absorbance (450 nm)” value [4] is reported as 0.97. For the same binder, the “absorbance (450 nm)” value [5] was 0.97, the Kd [6] was 28.8 nM and the koff [6] was 0.00159 s⁻¹. It also gave a kon [6] of 55300 M⁻¹ s⁻¹, a Kd [7] of 211 nM and a koff [7] of 0.0147 s⁻¹. It also gave a kon [7] of 69700 M⁻¹ s⁻¹, a Kd [8] of under 0.001 nM and a koff [8] of under 1e-07 s⁻¹. It also gave a kon [8] of 74500 M⁻¹ s⁻¹, a Kd [9] of 239 nM and a koff [9] of 0.0191 s⁻¹. The kon [9] was 79900 M⁻¹ s⁻¹.

B9: Bacillus subtilis-derived VHH-COVE7 (VHH)
VHH: EVQLVESGGGLVQAGDSLRLSCTASGRTFSSCAMGWFRQAPGKEREFVAAISRGGGSTSYADSVKGRFTISKDRARNTAYLEMNSLKPEDTAIYYCYAVFPSGGDYWGQGTQVTVSS
With B9 the binding result [1] was “no binding (tested: 500 ng/mL)”, the “absorbance (450 nm)” value [2] was 0.97 and the “absorbance (450 nm)” value [4] was 0.97. For the same binder, the “absorbance (450 nm)” value [5] was 0.97, the Kd [6] was 24 nM and the koff [6] was 0.00186 s⁻¹. It also gave a kon [6] of 73300 M⁻¹ s⁻¹, a Kd [7] of 80.2 nM and a koff [7] of 0.00707 s⁻¹. For the same binder, the kon [7] was 88100 M⁻¹ s⁻¹, the Kd [8] was 24.2 nM and the koff [8] was 0.00113 s⁻¹. For the same binder, the kon [8] was 46600 M⁻¹ s⁻¹, the Kd [9] was 93.7 nM and the koff [9] was 0.00398 s⁻¹. It also gave a kon [9] of 42400 M⁻¹ s⁻¹.

B10: Bacillus subtilis-derived VHH-COVE5 (VHH)
VHH: EVQLVESGGGLVQAGGSLRLSCTASDQIFDNYNMAWFRQSPGKEREFVAALSWGDSNTGYADSVKGRFTISRDNAKNTVYLQMNSLKPEDTAVYYCYAVTWLRGDYWGQGTQVTVSS
B10 was tested, and the binding result [1] was “no binding (tested: 500 ng/mL)”, the “absorbance (450 nm)” value [2] was 0.97 and the “absorbance (450 nm)” value [4] was 0.97. The “absorbance (450 nm)” value [5] was 0.97, the Kd [6] was 11.6 nM and the koff [6] was 0.00106 s⁻¹. For the same binder, the kon [6] was 91100 M⁻¹ s⁻¹, the Kd [7] was 626 nM and the koff [7] was 0.0246 s⁻¹. The kon [7] was 39200 M⁻¹ s⁻¹, the Kd [8] was 42.4 nM and the koff [8] was 0.00178 s⁻¹. It also gave a kon [8] of 42100 M⁻¹ s⁻¹, a Kd [9] of 306 nM and a koff [9] of 0.0625 s⁻¹. For the same binder, the kon [9] was 204000 M⁻¹ s⁻¹.
